These results are taken from patent EP1207201A1, “NOVEL G PROTEIN-COUPLED RECEPTOR PROTEIN AND DNA THEREOF” (Takeda Chemical Industries, Ltd., priority 1999, dated 2001).

The experiment concerns the target T1, AQ27 (Homo sapiens, UniProt Q96P65).
T1 construct: expressed in transfected cells; host or cells: CHO cells
T1 sequence (Q96P65 1-431): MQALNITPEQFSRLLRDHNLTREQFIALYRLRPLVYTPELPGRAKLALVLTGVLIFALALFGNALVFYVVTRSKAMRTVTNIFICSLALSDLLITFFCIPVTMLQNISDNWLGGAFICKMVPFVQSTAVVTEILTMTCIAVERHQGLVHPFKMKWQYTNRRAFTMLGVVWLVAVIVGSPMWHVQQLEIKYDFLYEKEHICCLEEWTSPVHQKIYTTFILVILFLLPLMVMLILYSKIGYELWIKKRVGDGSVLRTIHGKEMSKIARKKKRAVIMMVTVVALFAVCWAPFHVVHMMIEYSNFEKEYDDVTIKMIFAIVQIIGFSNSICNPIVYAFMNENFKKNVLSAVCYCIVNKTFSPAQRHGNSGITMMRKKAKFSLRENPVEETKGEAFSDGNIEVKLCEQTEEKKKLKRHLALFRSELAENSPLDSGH
In words: Cytosensor cell activation (increase of acidification rate) in AQ27-expressing CHO cells versus mock cells. The experiment is classed as cell-based. The following applies: 10 µM, exposure 7 minutes and 2 seconds, AQ27-expressing CHO cells compared with mock cells. As for the experimental part:
The vertical axis represents a cycle of measurement. "•" denotes the reactivity of receptor-expressed CHO cells and "○" denotes the reactivity of mock cells.
The AQ27-expressing CHO cells and mock cells were inoculated in a capsule for Cytosensor at a concentration of 2.7 x 10^5 cells/capsule, respectively, incuvated overnight, and mounted onto Cytosensor(Molecular Device). After the acidification rare became stable, the cells were exposed to 10 µM Enkephalin-Arg-Phe amide (Bachem, H-2835) for 7 minutes and 2 seconds. The cell activation was measured using the increasing rate of the acidification rate as index.

Where no end group is shown, it is not given here.

In the case of “Met-Enkephalin-Arg-Phe amide (YGGFMRF-NH2) [peptide amide purchased from Bachem, H-2835]”, the “cell activation measured using the increasing rate of the acidification rate as index” value is “specifically activates the AQ27-expressing CHO cells”.
